{"source": "paper PMC4786922", "test_system": "S1 zinc finger array (six-finger designed ZF) (artificial (designed))", "assay": "EMSA", "settings": "EMSA: ZBA buffer (composition not given), 0.05% NP-40, 0.1 mg/ml BSA, 10% glycerol, 35-75 pM target, 1.5 h at room temperature; pH not given"}
{"sequence": "CCTCTTCGCTATTACGCCAGCCATGCGTAGGGAGCCGCGGAACGTTCGATCGTACTCGAGTCAGGGTG (double strand) [S1 target site EMSA probe]", "values": [{"measurement": "Kd", "result": 5, "unit": "nM"}]}
